Patent US20250206802A1
Blank lines part the entries; values can stand above or below the molecule they belong to.

What was measured:
[1] = biological target: αVβ6 headpiece (soluble, disulfide-linked: αv headpiece residues 1-594 with M400C and β6 headpiece residues 1-474 with I270C) (UniProt P06756); assay: fluorescence anisotropy; pH 5.0
Target sequence in this assay (P06756 other isoform, or with tags, fused parts or gaps M400C I270C, chain 1 of 2): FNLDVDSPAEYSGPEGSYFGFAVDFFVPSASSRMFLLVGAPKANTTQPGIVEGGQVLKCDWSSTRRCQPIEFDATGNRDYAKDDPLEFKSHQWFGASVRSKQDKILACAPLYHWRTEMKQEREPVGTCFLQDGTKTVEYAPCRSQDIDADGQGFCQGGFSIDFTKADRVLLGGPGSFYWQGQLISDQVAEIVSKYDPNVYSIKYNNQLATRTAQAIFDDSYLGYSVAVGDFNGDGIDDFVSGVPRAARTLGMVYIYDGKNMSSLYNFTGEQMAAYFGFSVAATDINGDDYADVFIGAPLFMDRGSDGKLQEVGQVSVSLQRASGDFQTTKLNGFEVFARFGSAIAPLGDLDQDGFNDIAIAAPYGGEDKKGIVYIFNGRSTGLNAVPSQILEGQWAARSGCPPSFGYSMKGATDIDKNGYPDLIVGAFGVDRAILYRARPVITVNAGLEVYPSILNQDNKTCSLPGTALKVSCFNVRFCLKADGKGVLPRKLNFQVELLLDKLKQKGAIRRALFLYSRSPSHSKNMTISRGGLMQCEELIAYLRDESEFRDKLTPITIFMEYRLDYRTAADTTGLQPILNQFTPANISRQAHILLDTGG
Target sequence in this assay (P18564 other isoform, or with tags, fused parts or gaps M400C I270C, chain 2 of 2, further chain): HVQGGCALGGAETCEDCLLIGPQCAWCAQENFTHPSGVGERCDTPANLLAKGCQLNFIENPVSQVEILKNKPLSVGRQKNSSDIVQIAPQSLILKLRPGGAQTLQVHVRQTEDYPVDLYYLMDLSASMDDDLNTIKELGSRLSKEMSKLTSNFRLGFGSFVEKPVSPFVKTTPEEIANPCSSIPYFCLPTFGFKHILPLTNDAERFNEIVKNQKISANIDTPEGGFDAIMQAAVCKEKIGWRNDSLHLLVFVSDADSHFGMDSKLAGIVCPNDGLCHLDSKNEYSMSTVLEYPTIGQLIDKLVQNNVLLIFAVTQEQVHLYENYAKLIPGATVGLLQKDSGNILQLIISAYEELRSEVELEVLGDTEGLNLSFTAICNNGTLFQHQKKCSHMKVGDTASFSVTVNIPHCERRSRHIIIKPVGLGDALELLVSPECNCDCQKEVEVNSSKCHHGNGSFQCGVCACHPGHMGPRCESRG

[2] = biological target: αVβ6 headpiece (soluble, disulfide-linked: αv headpiece residues 1-594 with M400C and β6 headpiece residues 1-474 with I270C) (UniProt P06756); assay: fluorescence anisotropy; pH 6.0
Target sequence in this assay (P06756 other isoform, or with tags, fused parts or gaps M400C I270C, chain 1 of 2): as the sequence (P06756 other isoform, or with tags, fused parts or gaps M400C I270C, chain 1 of 2) above
Target sequence in this assay (P18564 other isoform, or with tags, fused parts or gaps M400C I270C, chain 2 of 2, further chain): as the sequence (P18564 other isoform, or with tags, fused parts or gaps M400C I270C, chain 2 of 2, further chain) above

[3] = biological target: αVβ6 headpiece (soluble, disulfide-linked: αv headpiece residues 1-594 with M400C and β6 headpiece residues 1-474 with I270C) (UniProt P06756); assay: fluorescence anisotropy; pH 7.0
Target sequence in this assay (P06756 other isoform, or with tags, fused parts or gaps M400C I270C, chain 1 of 2): as the sequence (P06756 other isoform, or with tags, fused parts or gaps M400C I270C, chain 1 of 2) above
Target sequence in this assay (P18564 other isoform, or with tags, fused parts or gaps M400C I270C, chain 2 of 2, further chain): as the sequence (P18564 other isoform, or with tags, fused parts or gaps M400C I270C, chain 2 of 2, further chain) above

[4] = biological target: αVβ6 headpiece (soluble, disulfide-linked: αv headpiece residues 1-594 with M400C and β6 headpiece residues 1-474 with I270C) (UniProt P06756); assay: fluorescence anisotropy; pH 8.0
Target sequence in this assay (P06756 other isoform, or with tags, fused parts or gaps M400C I270C, chain 1 of 2): as the sequence (P06756 other isoform, or with tags, fused parts or gaps M400C I270C, chain 1 of 2) above
Target sequence in this assay (P18564 other isoform, or with tags, fused parts or gaps M400C I270C, chain 2 of 2, further chain): as the sequence (P18564 other isoform, or with tags, fused parts or gaps M400C I270C, chain 2 of 2, further chain) above

[5] = biological target: αVβ6 headpiece (soluble, disulfide-linked: αv headpiece residues 1-594 with M400C and β6 headpiece residues 1-474 with I270C) (UniProt P06756); assay: fluorescence anisotropy; pH 9.0
Target sequence in this assay (P06756 other isoform, or with tags, fused parts or gaps M400C I270C, chain 1 of 2): as the sequence (P06756 other isoform, or with tags, fused parts or gaps M400C I270C, chain 1 of 2) above
Target sequence in this assay (P18564 other isoform, or with tags, fused parts or gaps M400C I270C, chain 2 of 2, further chain): as the sequence (P18564 other isoform, or with tags, fused parts or gaps M400C I270C, chain 2 of 2, further chain) above

[6] = biological target: αVβ3 headpiece (soluble, disulfide-linked: αv headpiece residues 1-594 with M400C and β3 headpiece residues 1-472 with Q267C) (UniProt P06756); assay: fluorescence anisotropy competition
Target sequence in this assay (P06756 other isoform, or with tags, fused parts or gaps M400C Q267C, chain 1 of 2): as the sequence (P06756 other isoform, or with tags, fused parts or gaps M400C I270C, chain 1 of 2) above
Target sequence in this assay (P05106 27-498 Q293C, chain 2 of 2, further chain): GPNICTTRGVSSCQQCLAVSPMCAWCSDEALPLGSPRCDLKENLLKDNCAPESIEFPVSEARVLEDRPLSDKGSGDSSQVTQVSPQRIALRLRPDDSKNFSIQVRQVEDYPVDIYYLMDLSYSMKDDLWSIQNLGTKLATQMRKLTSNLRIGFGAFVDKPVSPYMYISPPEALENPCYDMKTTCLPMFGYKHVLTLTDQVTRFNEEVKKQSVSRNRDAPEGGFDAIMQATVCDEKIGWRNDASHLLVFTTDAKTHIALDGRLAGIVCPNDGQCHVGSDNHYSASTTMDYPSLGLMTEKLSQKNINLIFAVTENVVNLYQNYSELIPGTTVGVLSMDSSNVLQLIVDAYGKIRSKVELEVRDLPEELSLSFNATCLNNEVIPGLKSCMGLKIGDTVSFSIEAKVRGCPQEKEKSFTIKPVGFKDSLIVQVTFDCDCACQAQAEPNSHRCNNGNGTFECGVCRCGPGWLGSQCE

[7] = biological target: αVβ6 headpiece (soluble, disulfide-linked: αv headpiece residues 1-594 with M400C and β6 headpiece residues 1-474 with I270C) (UniProt P06756); assay: competitive fluorescence anisotropy on αVβ6 headpiece
Target sequence in this assay (P06756 other isoform, or with tags, fused parts or gaps M400C I270C M400C I270C, chain 1 of 2): as the sequence (P06756 other isoform, or with tags, fused parts or gaps M400C I270C, chain 1 of 2) above
Target sequence in this assay (chain, as listed by the source M400C I270C M400C I270C, chain 2 of 2): as the sequence (P18564 other isoform, or with tags, fused parts or gaps M400C I270C, chain 2 of 2, further chain) above

[8] = biological target: αVβ3 headpiece (soluble, disulfide-linked: αv headpiece residues 1-594 with M400C and β3 headpiece residues 1-472 with Q267C) (UniProt P06756); assay: fluorescence anisotropy, competition with FITC-GRGDLGRL on αVβ3 headpiece
Target sequence in this assay (P06756 other isoform, or with tags, fused parts or gaps M400C Q267C M400C Q267C, chain 1 of 2): as the sequence (P06756 other isoform, or with tags, fused parts or gaps M400C I270C, chain 1 of 2) above
Target sequence in this assay (chain, as listed by the source M400C Q267C M400C Q267C, chain 2 of 2): as the sequence (P05106 27-498 Q293C, chain 2 of 2, further chain) above

[9] = biological target: αVβ6 headpiece (soluble, disulfide-linked: αv headpiece residues 1-594 with M400C and β6 headpiece residues 1-474 with I270C) (UniProt P06756); assay: fluorescence anisotropy, competition with FITC-GRGDLGRL on αVβ6 headpiece
Target sequence in this assay (P06756 other isoform, or with tags, fused parts or gaps M400C I270C M400C I270C, chain 1 of 2): as the sequence (P06756 other isoform, or with tags, fused parts or gaps M400C I270C, chain 1 of 2) above
Target sequence in this assay (chain, as listed by the source M400C I270C M400C I270C, chain 2 of 2): as the sequence (P18564 other isoform, or with tags, fused parts or gaps M400C I270C, chain 2 of 2, further chain) above

B1: TGF-β3 undecapeptide truncated from the C-terminus until Leu-247 is removed (peptide)
peptide: HGRGDLGR
step-wise drop in affinity (fold, against the peptide one residue longer) [7]: 10 fold

B3: nonapeptide containing RGD from pro-TGF-β3, … (SEQ ID NO: 75) (peptide)
peptide: GRGDLGRLK
fold lower affinity than for αVβ6 [8]: 1000 fold
Kd [9]: 8.5 nM

Other lines, results leading:

Kd [1]: 3810 nM
Kd [2]: 2000 nM
Kd [3]: 212 nM
Kd [4]: 84.6 nM
Kd [5]: 27.4 nM
Molecule: FITC-GRGDLGRL (SEQ ID NO: 68), FITC-pro-TGF-β3 peptide

Kd [6]: 1600 nM
Molecule: GRGDSP (SEQ ID NO: 72) peptide of fibronectin

step-wise drop in affinity (fold, against the peptide one residue longer) [7]: 10 fold
B2: TGF-β3 undecapeptide truncated from the C-terminus until Leu-244 is removed (peptide)
peptide: HGRGD
